Experimental data from article PMC4731814.
Blank lines part the entries; values can stand above or below the substance they belong to.

Key:
human plasminogen = assay: ELISA; conditions: bacteria OD600 = 0.6 bound to microtiter plates; 1 μM human PLG; parent: est. 0.29; read off a plot
[1] = target: tricellulin first extracellular loop fragment K217A (human) (UniProt Q8N4S9); assay: SPR; BIAcore X; tricellulin proteins amine-coupled on a CM5 chip; human PLG as analyte at 62.5-1000 nM; HBS-P buffer pH 7.4, 0.15 M NaCl, 37 °C, 30 μl/min; 1:1 Langmuir binding model
[2] = target: tricellulin first extracellular loop fragment K217A K252A (human) (UniProt Q8N4S9); assay: as above
[3] = target: tricellulin first extracellular loop fragment, wild type (human) (UniProt Q8N4S9); assay: as above
[4] = target: tricellulin first extracellular loop fragment K252A (human) (UniProt Q8N4S9); assay: as above
[5] = target: tricellulin second extracellular loop fragment (human) (UniProt Q8N4S9); assay: as above

Substance: streptococcal surface enolase on GAS strain NIH35 (wild type) (from UniProt P69949) K252L; K255L; K434L; K435L
response (human plasminogen): 0.17 A450

Substance: streptococcal surface enolase on GAS strain NIH35 (wild type) (from UniProt P69949) K434L; K435L
response (human plasminogen): 0.3 A450

Kd [1]: 183 nM
koff [1]: 0.0298 s⁻¹
kon [1]: 165000 M⁻¹ s⁻¹
Kd [2]: 1030 nM
koff [2]: 0.0742 s⁻¹
kon [2]: 72400 M⁻¹ s⁻¹
Kd [3]: 51.5 nM
koff [3]: 7.13 s⁻¹
kon [3]: 1.39e+08 M⁻¹ s⁻¹
Kd [4]: 3.13 µM
koff [4]: 0.0184 s⁻¹
kon [4]: 5890 M⁻¹ s⁻¹
Kd [5]: 1270 nM
koff [5]: 0.214 s⁻¹
kon [5]: 169000 M⁻¹ s⁻¹
Substance: human plasminogen (natural protein)

Substance: streptococcal surface enolase on GAS strain NIH35 (wild type) (from UniProt P69949) K252L; K255L
response (human plasminogen): 0.23 A450
